The RNAGym collection of RNA variant scans (doi:10.1093/nar/gkz1192)

B1: CPEB3 Ribozyme (parent)
chain: UAACAGGGGGCCACAGCAGAAGCGUUCACGUCGCAGCCCCUGUCAGAUUCUGGUGAAUCUGCGAAUUCUGCUGUAUAUCUC

Variants of: B1
Assay: self-cleavage, relative activity (ratio to wild type); higher = more cleavage; in vitro, sequencing
In short: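 After error-prone PCR and barcoding, CPEB3 ribozyme mutant libraries were transcribed with T7 RNA polymerase at 37°C for 5 hours, then given 15 min with DNase I before an EDTA stop, and they cleaved during both steps. Reverse transcription with template switching preceded Illumina sequencing. Relative activity divides a variant's cleaved/total read fraction by the unmutated ribozyme's. At least 5 reads were required per variant, and three batches were averaged.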

Variant | self-cleavage
UAACAGGGGGCCACUGCAGAAGUGUUCACGUCGCAGCCCCUGUCAGAUUCUGGUGAAUCUGCGAAUUCUGCUGUAUAUCUC [A15U C23U] | 0.23
UAACAGGGGGCCACUGCAGAAGAGUUCACGUCGCAGCCCCUGUCAGAUUCUGGUGAAUCUGCGAAUUCUGCUGUAUAUCUC [A15U C23A] | 0.18
UAACAGGGGGCCACUGUAGAAGCGUUCACGUCGCAGCCCCUGUCAGAUUCUGGUGAAUCUGCGAAUUCUGCUGUAUAUCUC [A15U C17U] | 0.21
UAACAGGGGGCCACUGGAGAAGCGUUCACGUCGCAGCCCCUGUCAGAUUCUGGUGAAUCUGCGAAUUCUGCUGUAUAUCUC [A15U C17G] | 0.36
UAACAGGGGGCCACUGAAGAAGCGUUCACGUCGCAGCCCCUGUCAGAUUCUGGUGAAUCUGCGAAUUCUGCUGUAUAUCUC [A15U C17A] | 0.6
UAACAGGGGGCCACUGCAGAAGCGUUCACGUCGCAGCCCCUGUCAGAUUCUGGUGAGUCUGCGAAUUCUGCUGUAUAUCUC [A15U A57G] | 0.66
UAACAGGGGGCCACUGCAGAAGCGUUCACGUCGCAGCCCCUGUCAGAUUCUGGUGAUUCUGCGAAUUCUGCUGUAUAUCUC [A15U A57U] | 0.15
UAACAGGGGGCCACUGCAGUAGCGUUCACGUCGCAGCCCCUGUCAGAUUCUGGUGAAUCUGCGAAUUCUGCUGUAUAUCUC [A15U A20U] | 0.27
UAACAGGGGGCCACUGCAGGAGCGUUCACGUCGCAGCCCCUGUCAGAUUCUGGUGAAUCUGCGAAUUCUGCUGUAUAUCUC [A15U A20G] | 0.41
UAACAGGGGGCCACUGCAGAAGCGUUCACGUCGCAGCCCCUGUCAGAUUCUGGUGGAUCUGCGAAUUCUGCUGUAUAUCUC [A15U A56G] | 0.46
UAACAGGGGGCCACUGCAGAAGCGUUCACGUCGCAGCCCCUGUCAGAUUCUGGUGUAUCUGCGAAUUCUGCUGUAUAUCUC [A15U A56U] | 0.47
UAACAGGGGGCCACUGCAGAAGCGUUCACGUUGCAGCCCCUGUCAGAUUCUGGUGAAUCUGCGAAUUCUGCUGUAUAUCUC [A15U C32U] | 0.4
UAACAGGGGGCCACUGCAGAAGCGUUCACGUAGCAGCCCCUGUCAGAUUCUGGUGAAUCUGCGAAUUCUGCUGUAUAUCUC [A15U C32A] | 0.24
UAACAGGGGGCCACUGCAGAAGCGUUCACGUGGCAGCCCCUGUCAGAUUCUGGUGAAUCUGCGAAUUCUGCUGUAUAUCUC [A15U C32G] | 0.06
UAACAGGGGGCCACUGCAGAAGCGUUCACGUCGCAGCCCCUGUAAGAUUCUGGUGAAUCUGCGAAUUCUGCUGUAUAUCUC [A15U C44A] | 0.32
UAACAGGGGGCCACUGCAGAAGCGUUCACGUCGCAGCCCCUGUUAGAUUCUGGUGAAUCUGCGAAUUCUGCUGUAUAUCUC [A15U C44U] | 0.22
UAACAGGGGGCCACUGCAGAAGCGUUCACGUCGCAGCCCCUGUGAGAUUCUGGUGAAUCUGCGAAUUCUGCUGUAUAUCUC [A15U C44G] | 0.31

Variant | self-cleavage
UAACAGGGGGCCACGGCAGAAGCGUUCACGUCGCAGCCCCUGUCAGAUUCUGGUGAAUCUGCGAAUUCUGCUGUAUAUCCC [A15G U80C] | 1.06
UAACAGGGGGCCACGGCAGAAGCGUUCACGUCGCAGCCCCUGUCAGAUUCUGGUGAAUCUGCGAAUUCUGCUGUAUAUCGC [A15G U80G] | 0.86
UAACAGGGGGCCACGGCAGAAGCGUUCACGUCGCAGCCCCUGUCAGAUUCUGGUGAAUCUGCGAAUUCUGCUGUAUAUCAC [A15G U80A] | 1.07
UAACAGGGGGCCACUGCAGAAGCGUUCACGUCGCAGUCCCUGUCAGAUUCUGGUGAAUCUGCGAAUUCUGCUGUAUAUCUC [A15U C37U] | 0.29
UAACAGGGGGCCACGGCAGAAGCGUUCACGUCGCAGCCCCUGUCAGAUUCUGGUGAAUCUGCGAAUUCUGCUGUAUACCUC [A15G U78C] | 0.78
UAACAGGGGGCCACGGCAGAAGCGUUCACGUCGCAGCCCCUGUCAGAUUCUGGUGAAUCUGCGAAUUCUGCUGUAUAGCUC [A15G U78G] | 1.06
UAACAGGGGGCCACUGCAGAAGCGUUCACGUCGCAGCGCCUGUCAGAUUCUGGUGAAUCUGCGAAUUCUGCUGUAUAUCUC [A15U C38G] | 0.25
UAACAGGGGGCCACUGCAGAAGCGUUCACGUCGCAGCUCCUGUCAGAUUCUGGUGAAUCUGCGAAUUCUGCUGUAUAUCUC [A15U C38U] | 0.67
UAACAGGGGGCCACUGCAGAAGCGUUCACGUCGCAGCACCUGUCAGAUUCUGGUGAAUCUGCGAAUUCUGCUGUAUAUCUC [A15U C38A] | 0.2
UAACAGGGGGCCACUGCAGAAGCGUUCACGUCGCAGCCCCUGUCAGAUUCUGGUGAAUCUGCGAAUUUUGCUGUAUAUCUC [A15U C68U] | 0.26
UAACAGGGGGCCACUGCAGAAGCGUUCACGUCGCAGCCCCUGUCAGAUUCUGGUGAAUCUGCGAAUUCUGCUGUGUAUCUC [A15U A75G] | 0.67
UAACAGGGGGCCACUGCAGAAGCGUUCACGUCGCAGCCCCUGUCAGAUUCUGGUGAAUCUGCGAAUUCUGCUGUUUAUCUC [A15U A75U] | 0.87
UAACAGGGGGCCACUGCAGAAGCGUUCACGUCGCAGCCCCUGUCCGAUUCUGGUGAAUCUGCGAAUUCUGCUGUAUAUCUC [A15U A45C] | 0.18
UAACAGGGGGCCACUGCAGAAGCGUUCACGUCGCAGCCCCUGUCGGAUUCUGGUGAAUCUGCGAAUUCUGCUGUAUAUCUC [A15U A45G] | 0.49
UAACAGGGGGCCACUGCAGAAGCGUUCACGUCGCAGCCCCUGUCUGAUUCUGGUGAAUCUGCGAAUUCUGCUGUAUAUCUC [A15U A45U] | 0.33
UAACAGGGGGCCACUGCAGAAGCGUUCACGUCGCAGCCCCUGUCAGAUUCUGGUGAAUCUGCGGAUUCUGCUGUAUAUCUC [A15U A64G] | 0.54
UAACAGGGGGCCACUGCAGAAGCGUUCACGUCGCAGCCCCUGUCAGAUUCUGGUGAAUCUGCGUAUUCUGCUGUAUAUCUC [A15U A64U] | 0.37
